# FireProtDB (doi:10.1006/jmbi.2000.4053)
# Details: Homo sapiens, pH 5, 25 °C
# [1] = GdnHCl, CD, Sodium acetate 50 mM, structure 1TTG
# [2] = GdnHCl, Fluorescence, Sodium acetate 50mM, transition: 2, structure 1TEN
# [3] = Urea, CD, Sodium acetate 50 mM, structure 1TEN
# [4] = GdnHCl, Fluorescence, Sodium acetate 50mM, transition: 2, structure 1FNF
# Chain of Fibronectin I1625A, P02751 (P02751 whole entry I1625A): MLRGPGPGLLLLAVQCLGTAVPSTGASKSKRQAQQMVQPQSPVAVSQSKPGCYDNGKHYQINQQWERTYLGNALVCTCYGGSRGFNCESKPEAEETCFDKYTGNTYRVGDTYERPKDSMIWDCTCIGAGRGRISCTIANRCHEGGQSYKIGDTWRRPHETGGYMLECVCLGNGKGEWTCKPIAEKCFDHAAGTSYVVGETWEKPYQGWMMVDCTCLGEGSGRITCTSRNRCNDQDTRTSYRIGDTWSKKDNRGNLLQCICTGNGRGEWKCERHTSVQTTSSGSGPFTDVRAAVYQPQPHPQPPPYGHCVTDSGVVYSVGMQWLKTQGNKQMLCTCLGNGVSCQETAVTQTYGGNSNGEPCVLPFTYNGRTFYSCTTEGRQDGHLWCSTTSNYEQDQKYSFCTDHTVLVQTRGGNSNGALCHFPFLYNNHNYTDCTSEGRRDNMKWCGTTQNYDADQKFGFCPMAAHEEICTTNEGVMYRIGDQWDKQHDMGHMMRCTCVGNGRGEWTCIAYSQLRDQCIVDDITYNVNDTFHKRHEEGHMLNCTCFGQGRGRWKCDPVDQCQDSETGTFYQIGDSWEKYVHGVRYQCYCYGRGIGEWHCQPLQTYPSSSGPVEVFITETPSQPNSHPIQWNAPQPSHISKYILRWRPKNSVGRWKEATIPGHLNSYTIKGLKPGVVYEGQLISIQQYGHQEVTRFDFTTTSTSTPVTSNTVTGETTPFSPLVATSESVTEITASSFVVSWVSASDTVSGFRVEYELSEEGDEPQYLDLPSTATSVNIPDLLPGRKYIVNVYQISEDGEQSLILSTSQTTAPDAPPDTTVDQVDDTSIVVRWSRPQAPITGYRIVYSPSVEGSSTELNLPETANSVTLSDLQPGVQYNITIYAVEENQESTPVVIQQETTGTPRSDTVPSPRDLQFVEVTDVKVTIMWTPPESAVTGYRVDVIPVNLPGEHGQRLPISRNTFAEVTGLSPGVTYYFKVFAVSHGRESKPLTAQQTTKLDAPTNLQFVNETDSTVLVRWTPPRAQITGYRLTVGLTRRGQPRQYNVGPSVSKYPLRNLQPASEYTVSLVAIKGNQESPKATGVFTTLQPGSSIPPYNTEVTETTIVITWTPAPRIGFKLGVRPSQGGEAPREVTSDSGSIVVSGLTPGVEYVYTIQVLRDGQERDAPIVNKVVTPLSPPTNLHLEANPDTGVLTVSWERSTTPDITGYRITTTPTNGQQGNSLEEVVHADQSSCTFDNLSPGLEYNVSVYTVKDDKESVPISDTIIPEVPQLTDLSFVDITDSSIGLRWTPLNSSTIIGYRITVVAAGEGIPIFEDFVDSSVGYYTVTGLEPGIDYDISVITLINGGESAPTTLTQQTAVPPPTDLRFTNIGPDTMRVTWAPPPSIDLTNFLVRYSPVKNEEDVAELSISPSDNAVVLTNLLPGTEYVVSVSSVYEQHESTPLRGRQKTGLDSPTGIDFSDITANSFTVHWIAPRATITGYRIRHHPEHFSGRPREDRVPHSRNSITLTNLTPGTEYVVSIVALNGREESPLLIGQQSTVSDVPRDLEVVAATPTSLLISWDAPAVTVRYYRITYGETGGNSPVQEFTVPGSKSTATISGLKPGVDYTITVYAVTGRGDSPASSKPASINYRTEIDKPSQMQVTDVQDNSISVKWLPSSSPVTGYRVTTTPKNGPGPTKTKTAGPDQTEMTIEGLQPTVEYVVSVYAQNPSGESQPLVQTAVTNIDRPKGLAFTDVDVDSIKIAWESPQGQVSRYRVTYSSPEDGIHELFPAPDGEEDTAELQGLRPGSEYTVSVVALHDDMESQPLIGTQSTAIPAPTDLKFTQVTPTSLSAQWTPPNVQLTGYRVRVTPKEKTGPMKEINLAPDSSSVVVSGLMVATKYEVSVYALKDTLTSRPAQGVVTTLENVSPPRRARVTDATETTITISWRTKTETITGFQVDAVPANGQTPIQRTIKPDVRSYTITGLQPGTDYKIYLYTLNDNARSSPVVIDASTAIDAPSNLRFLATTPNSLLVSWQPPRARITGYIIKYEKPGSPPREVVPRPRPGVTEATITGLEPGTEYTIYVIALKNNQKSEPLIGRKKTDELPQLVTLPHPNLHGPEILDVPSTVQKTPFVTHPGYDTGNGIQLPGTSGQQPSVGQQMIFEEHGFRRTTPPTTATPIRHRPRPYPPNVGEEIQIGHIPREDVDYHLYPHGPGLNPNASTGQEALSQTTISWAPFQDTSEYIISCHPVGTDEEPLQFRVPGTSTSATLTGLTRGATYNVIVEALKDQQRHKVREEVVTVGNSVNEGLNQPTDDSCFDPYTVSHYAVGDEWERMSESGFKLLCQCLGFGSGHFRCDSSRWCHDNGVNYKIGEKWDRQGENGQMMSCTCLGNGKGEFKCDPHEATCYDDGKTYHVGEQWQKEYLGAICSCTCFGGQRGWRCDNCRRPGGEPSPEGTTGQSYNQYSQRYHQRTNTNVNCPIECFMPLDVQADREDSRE
# Chain of Fibronectin A1611G, P02751 (P02751 whole entry A1611G): as the sequence (P02751 whole entry I1625A) above, with A1611G, A1625I counted along it
# Chain of Fibronectin L1545A, P02751 (P02751 whole entry L1545A): as the sequence (P02751 whole entry I1625A) above, with L1545A, A1625I counted along it
# Chain of Fibronectin A1594G, P02751 (P02751 whole entry A1594G): as the sequence (P02751 whole entry I1625A) above, with A1594G, A1625I counted along it
# Chain of Fibronectin V1547A, P02751 (P02751 whole entry V1547A): as the sequence (P02751 whole entry I1625A) above, with V1547A, A1625I counted along it
# Chain of Fibronectin Y1629F, P02751 (P02751 whole entry Y1629F): as the sequence (P02751 whole entry I1625A) above, with A1625I, Y1629F counted along it
# Chain of Fibronectin P1601A, P02751 (P02751 whole entry P1601A): as the sequence (P02751 whole entry I1625A) above, with P1601A, A1625I counted along it
# Chain of Fibronectin I1627V, P02751 (P02751 whole entry I1627V): as the sequence (P02751 whole entry I1625A) above, with A1625I, I1627V counted along it
# Chain of Fibronectin Y1605F, P02751 (P02751 whole entry Y1605F): as the sequence (P02751 whole entry I1625A) above, with Y1605F, A1625I counted along it
# Chain of Fibronectin I1596V, P02751 (P02751 whole entry I1596V): as the sequence (P02751 whole entry I1625A) above, with I1596V, A1625I counted along it
# Chain of Fibronectin L1599A, P02751 (P02751 whole entry L1599A): as the sequence (P02751 whole entry I1625A) above, with L1599A, A1625I counted along it
# Chain of Fibronectin L1555A, P02751 (P02751 whole entry L1555A): as the sequence (P02751 whole entry I1625A) above, with L1555A, A1625I counted along it
# Chain of Fibronectin A1550G, P02751 (P02751 whole entry A1550G): as the sequence (P02751 whole entry I1625A) above, with A1550G, A1625I counted along it
Substance,ddG of mutation (higher = less stable) [1],denaturant m value [1],denaturant midpoint (higher = more stable) [1],ddG of mutation (higher = less stable) [3],denaturant m value [3],denaturant midpoint (higher = more stable) [3],further results
"Fibronectin A1611G, P02751",1.38 kcal/mol,6.2 kcal/mol/M,1.26 M,,,,
"Tenascin, P24821 I809V",,,,0.18 kcal/mol,1.3 kcal/mol/M,5.17 M,ddG of mutation (higher = less stable) [2]: 0.18 kcal/mol; denaturant m value [2]: 4.21 kcal/mol/M; denaturant midpoint (higher = more stable) [2]: 1.2 M
"Tenascin, P24821 A819G",,,,2.8 kcal/mol,1.3 kcal/mol/M,3.03 M,ddG of mutation (higher = less stable) [2]: 2.8 kcal/mol; denaturant m value [2]: 2.31 kcal/mol/M; denaturant midpoint (higher = more stable) [2]: 1.3 M
"Tenascin, P24821 I860V",,,,0.83 kcal/mol,1.2 kcal/mol/M,4.64 M,ddG of mutation (higher = less stable) [2]: 0.83 kcal/mol; denaturant m value [2]: 1.86 kcal/mol/M; denaturant midpoint (higher = more stable) [2]: 1.5 M
"Tenascin, P24821 F889A",,,,5.43 kcal/mol,,0.9 M,ddG of mutation (higher = less stable) [2]: 5.43 kcal/mol
"Fibronectin P1601A, P02751",0.41 kcal/mol,6.6 kcal/mol/M,1.41 M,,,,
"Fibronectin Y1605F, P02751",2.03 kcal/mol,6.2 kcal/mol/M,1.16 M,,,,
"Fibronectin L1555A, P02751",0.87 kcal/mol,6.3 kcal/mol/M,1.34 M,,,,
"Tenascin, P24821 L835A",,,,4.29 kcal/mol,1.4 kcal/mol/M,1.8 M,
"Fibronectin V1547A, P02751",1.38 kcal/mol,6.8 kcal/mol/M,1.26 M,,,,
"Fibronectin L1599A, P02751",2.94 kcal/mol,6.6 kcal/mol/M,1.02 M,,,,
"Tenascin, P24821 P884A",,,,0.11 kcal/mol,1.1 kcal/mol/M,5.23 M,
"Fibronectin Y1629F, P02751",-0.11 kcal/mol,6.5 kcal/mol/M,1.49 M,,,,
"Fibronectin A1550G, P02751",0.93 kcal/mol,6.1 kcal/mol/M,1.33 M,,,,
"Tenascin, P24821 I860A",,,,2.06 kcal/mol,1.3 kcal/mol/M,3.63 M,
"Fibronectin I1596V, P02751",1.12 kcal/mol,7.1 kcal/mol/M,1.3 M,,,,
"Fibronectin I1625A, P02751",0.35 kcal/mol,6.03 kcal/mol/M,1.42 M,,,,
"Tenascin, P24821 L851A",,,,2.99 kcal/mol,1.3 kcal/mol/M,2.87 M,ddG of mutation (higher = less stable) [2]: 2.99 kcal/mol; denaturant m value [2]: 1.93 kcal/mol/M; denaturant midpoint (higher = more stable) [2]: 1.3 M
"Fibronectin I1627V, P02751",0.28 kcal/mol,6.3 kcal/mol/M,1.43 M,,,,ddG of mutation (higher = less stable) [4]: 1.12 kcal/mol; denaturant m value [4]: 7.1 kcal/mol/M; denaturant midpoint (higher = more stable) [4]: 0.91 M; unfolding free energy [4]: 8.28 kcal/mol
"Tenascin, P24821 I830A",,,,1.38 kcal/mol,1.1 kcal/mol/M,4.19 M,ddG of mutation (higher = less stable) [2]: 1.38 kcal/mol; denaturant m value [2]: 5.06 kcal/mol/M; denaturant midpoint (higher = more stable) [2]: 1.2 M
"Fibronectin A1594G, P02751",2.81 kcal/mol,7.1 kcal/mol/M,1.04 M,,,,
"Fibronectin L1545A, P02751",1.64 kcal/mol,6.2 kcal/mol/M,1.22 M,,,,
"Tenascin, P24821 I809A",,,,2.86 kcal/mol,1.3 kcal/mol/M,2.98 M,ddG of mutation (higher = less stable) [2]: 2.86 kcal/mol; denaturant m value [2]: 5.17 kcal/mol/M; denaturant midpoint (higher = more stable) [2]: 1.3 M
"Tenascin, P24821 S875A",,,,-0.04 kcal/mol,1.1 kcal/mol/M,5.36 M,
